Results from patent US20170298096A1 (CANIMGUIDE THERAPEUTICS, published 2017).

T1: His-tagged P3028 peptide (PGE73) (human)
T1 construct: also called His-tag-P3028; not shown: His-tag
T1 peptide: VFDEFKPLVEEPQNLIK

T2: His-tagged P3028 peptide (PGE73) (human)
T2 construct: albumin-derived peptide, in solution at 0.5 ug/mL; not shown: His-tag
T2 peptide: VFDEFKPLVEEPQNLIK


Target: T1, His-tagged P3028 peptide (PGE73)
Experiment: PEPSCAN ELISA; peptide on card, His-tagged P3028 in solution;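 note: bound protein detected by peroxidase colour with ABTS substrate, imaged on the peptide card by CCD camera at 405 nm, rampo units being raw OD405 readings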
Description: (§1) After washing, the peroxidase substrate 2,2′-azine-di-3-ethylbenzthiazoline sulfonate (ABTS) and 2 μL of 3% H2O2 were added. The binding capacity of the mAb was measured as a color development at 405 nm (optical density, OD405). The color development was quantified with a charge-coupled device (CCD)—camera and an image processing system.
(§2) The OD405-values obtained by a CCD-camera was considered as raw data values (“rampo values,” “rampo units,” or “rampo scores”). […] First the CCD-camera made a picture of the card before peroxidase coloring and then again a picture after the peroxidase coloring. […] These values were copied into an excel file and labeled as a raw data file. One follow-up manipulation was allowed. Sometimes a well can contain an air-bubble resulting in a false-positive value. If manual inspection of the cards detect an air-bubble the value are set to 0 for that well.

Row | Binder | RAMPO Score [rampo units]
1 | CKLDTFFVKLSLFTER (P28R variant on PEPSCAN card) [SEQ ID NO: 546] | 215
2 | KKLDTFFVKLSLFTEP (P28R variant on PEPSCAN card) [SEQ ID NO: 533] | 234
3 | KKLDTFFVKLSLFTED (P28R variant on PEPSCAN card) [SEQ ID NO: 572] | 133
4 | KKLDTFFVKLSLFTEL (P28R variant on PEPSCAN card) [SEQ ID NO: 544] | 217
5 | KKLDTFFVKLSLFTEQ (P28R variant on PEPSCAN card) [SEQ ID NO: 573] | 133
6 | KKLDTFFVKLSLFTEW (P28R variant on PEPSCAN card) [SEQ ID NO: 551] | 202
7 | KKLDTFFVKLSLFTEC (P28R variant on PEPSCAN card) [SEQ ID NO: 559] | 175
8 | KKLDTFFVKLSLFTEI (P28R variant on PEPSCAN card) [SEQ ID NO: 558] | 176
9 | KKLDTFFVKLSLFTEE (P28R variant on PEPSCAN card) [SEQ ID NO: 577] | 107
10 | KKLDTFFVKLSLFTEG (P28R variant on PEPSCAN card) [SEQ ID NO: 543] | 218
11 | KKLDTFFVKLSLFTES (P28R variant on PEPSCAN card) [SEQ ID NO: 557] | 184
12 | KKLDTFFVKLSLFTEA (P28R variant on PEPSCAN card) [SEQ ID NO: 538] | 226
13 | KKLDTFFWKLSLFTER (P28R variant on PEPSCAN card) [SEQ ID NO: 537] | 228
14 | KKLDTFFEKLSLFTER (P28R variant on PEPSCAN card) [SEQ ID NO: 570] | 139
15 | KKLDTFFMKLSLFTER (P28R variant on PEPSCAN card) [SEQ ID NO: 540] | 221
16 | KKLDTFFDKLSLFTER (P28R variant on PEPSCAN card) [SEQ ID NO: 574] | 122
17 | KKLDTFFNKLSLFTER (P28R variant on PEPSCAN card) [SEQ ID NO: 550] | 203
18 | KKLDTFFSKLSLFTER (P28R variant on PEPSCAN card) [SEQ ID NO: 545] | 216
19 | KKLDTFFHKLSLFTER (P28R variant on PEPSCAN card) [SEQ ID NO: 547] | 213
20 | KKLDTFFYKLSLFTER (P28R variant on PEPSCAN card) [SEQ ID NO: 549] | 211
21 | KKLDTEFVKLSLFTER (P28R variant on PEPSCAN card) [SEQ ID NO: 536] | 229
22 | KKLDTDFVKLSLFTER (P28R variant on PEPSCAN card) [SEQ ID NO: 553] | 193
23 | KKLDTFKVKLSLFTER (P28R variant on PEPSCAN card) [SEQ ID NO: 535] | 232
24 | KKLDTFFVKLLLFTER (P28R variant on PEPSCAN card) [SEQ ID NO: 548] | 213

Row | Binder | RAMPO Score [rampo units]
25 | KKLDTFFVKLSLKTER (P28R variant on PEPSCAN card) [SEQ ID NO: 542] | 220
26 | KKLDTFFVKLSLETER (P28R variant on PEPSCAN card) [SEQ ID NO: 579] | 98
27 | KKLDTFFVKLSLDTER (P28R variant on PEPSCAN card) [SEQ ID NO: 575] | 112
28 | KKLDTFFVKLSLFTFR (P28R variant on PEPSCAN card) [SEQ ID NO: 571] | 137
29 | KKLDTFFVKLSLFTNR (P28R variant on PEPSCAN card) [SEQ ID NO: 566] | 161
30 | KKLDTFFVKLSLFTTR (P28R variant on PEPSCAN card) [SEQ ID NO: 568] | 152
31 | KKLDTFFVKLSLFTCR (P28R variant on PEPSCAN card) [SEQ ID NO: 556] | 185
32 | KKLDTFFVKLSLFTGR (P28R variant on PEPSCAN card) [SEQ ID NO: 101] | 233
33 | KKLDTFFVKLSLFTVR (P28R variant on PEPSCAN card) [SEQ ID NO: 565] | 163
34 | KKLDTFFVKLSLFTIR (P28R variant on PEPSCAN card) [SEQ ID NO: 564] | 163
35 | KKLDTFFVKLSLFTSR (P28R variant on PEPSCAN card) [SEQ ID NO: 563] | 165
36 | KKLDTFFVKLSLFTWR (P28R variant on PEPSCAN card) [SEQ ID NO: 539] | 226
37 | KKLDTFFVKLSLFTAR (P28R variant on PEPSCAN card) [SEQ ID NO: 561] | 174
38 | KKLDTFFVYLSLFTER (P28R variant on PEPSCAN card) [SEQ ID NO: 552] | 198
39 | KKLDTFFVLLSLFTER (P28R variant on PEPSCAN card) [SEQ ID NO: 562] | 166
40 | KKLDTFFVILSLFTER (P28R variant on PEPSCAN card) [SEQ ID NO: 555] | 190
41 | KKLDTFFVCLSLFTER (P28R variant on PEPSCAN card) [SEQ ID NO: 541] | 220
42 | KKLDTFFVDLSLFTER (P28R variant on PEPSCAN card) [SEQ ID NO: 569] | 149
43 | KKLDTFFVGLSLFTER (P28R variant on PEPSCAN card) [SEQ ID NO: 98] | 188
44 | KKLDTFFVFLSLFTER (P28R variant on PEPSCAN card) [SEQ ID NO: 560] | 174
45 | KKLDTFFVPLSLFTER (P28R variant on PEPSCAN card) [SEQ ID NO: 534] | 233
46 | KKLDTFFVGLSLFTER (P28R variant on PEPSCAN card) [SEQ ID NO: 97] | 188
47 | KKLDTFFVALSLFTER (P28R variant on PEPSCAN card) [SEQ ID NO: 554] | 191

Target: T2, His-tagged P3028 peptide (PGE73)
Experiment: PEPSCAN ELISA, peptide on card
Description: as §1, §2

Row | Binder | RAMPO Score
48 | KKLDTFFVKLSLFFER [SEQ ID NO: 376 KKLDTFFVKLSLFFER] | 348
49 | KKLDTFFVKLSLFGER [SEQ ID NO: 377 KKLDTFFVKLSLFGER] | 343
50 | KKLDTFFVKLSLFTEF [SEQ ID NO: 388 KKLDTFFVKLSLFTEF] | 297
51 | KKLDTFFVKLSLFVER [SEQ ID NO: 385 KKLDTFFVKLSLFVER] | 380
52 | KKLDTFFVKLSLFMER [SEQ ID NO: 381 KKLDTFFVKLSLFMER] | 501
53 | KKLDTFFVKLSLFSER [SEQ ID NO: 384 KKLDTFFVKLSLFSER] | 369
54 | KKLDTFFVKLSLFPER [SEQ ID NO: 383 KKLDTFFVKLSLFPER] | 551
55 | KKLDTFFVKLSLFIER [SEQ ID NO: 379 KKLDTFFVKLSLFIER] | 375
56 | KKLDTFFVKLSLFWER [SEQ ID NO: 386 KKLDTFFVKLSLFWER] | 374
57 | KKLDTFFVKLSLFTEN [SEQ ID NO: 390 KKLDTFFVKLSLFTEN] | 311
58 | KKLDTFFVKLSLFTET [SEQ ID NO: 392 KKLDTFFVKLSLFTET] | 292
59 | KKLDTFFVKLSLFTEK [SEQ ID NO: 389 KKLDTFFVKLSLFTEK] | 291
60 | KKLDTFFVKLSLFHER [SEQ ID NO: 378 KKLDTFFVKLSLFHER] | 463
61 | KKLDTFFVKLSLFNER [SEQ ID NO: 382 KKLDTFFVKLSLFNER] | 599
62 | KKLDTFFVKLSLFTEY [SEQ ID NO: 393 KKLDTFFVKLSLFTEY] | 311
63 | KKLDTFFVKLSLFLER [SEQ ID NO: 380 KKLDTFFVKLSLFLER] | 360
64 | KKLDTFFVKLSLFTDR [SEQ ID NO: 387 KKLDTFFVKLSLFTDR] | 404
